# Reference: patent publication US20130251724A1 (GlaxoSmithKline, published 2013)
# Where “and” joins values, the source holds several entries; their conditions need not be identical. Equal entries are not always repeated. Where two headings read alike, the source gives them in different places.
# T1: Human OSM (human, UniProt P13725 26-221)
# T1 construct: Recombinant human OSM; also called hOSM; human Oncostatin M
# T1 sequence: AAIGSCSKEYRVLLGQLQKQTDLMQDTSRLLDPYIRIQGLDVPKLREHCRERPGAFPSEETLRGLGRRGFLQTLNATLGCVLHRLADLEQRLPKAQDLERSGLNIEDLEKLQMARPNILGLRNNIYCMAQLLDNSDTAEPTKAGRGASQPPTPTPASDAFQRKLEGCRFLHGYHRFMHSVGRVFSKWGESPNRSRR
# T2: Cynomolgus OSM (cynomolgus, UniProt A0A2K5VPC6 26-221)
# T2 construct: also called Cyno OSM; cynomolgus macaque OSM
# T2 sequence: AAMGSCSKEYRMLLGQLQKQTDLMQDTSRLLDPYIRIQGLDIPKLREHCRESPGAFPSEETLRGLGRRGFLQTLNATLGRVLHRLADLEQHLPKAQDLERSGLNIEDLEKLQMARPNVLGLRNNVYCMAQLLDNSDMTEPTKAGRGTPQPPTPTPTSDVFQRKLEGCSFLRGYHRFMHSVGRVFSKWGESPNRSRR
# T3: Rhesus OSM (rhesus macaque, UniProt F7GF43 26-221)
# T3 construct: also called rhesus macaque OSM
# T3 sequence: T2 sequence
# T4: Endogenous human OSM (neutrophil-derived) (human, UniProt P13725 26-221, limits assumed)
# T4 construct: Native OSM generated from GM-CSF stimulation of healthy human neutrophils; also called native OSM; endogenous OSM
# T4 sequence: T1 sequence
# B1: 2B7, murine anti-OSM mAb (antibody, V domains shown)
# VH: EVQLVESGGGLVKPGGSLKLSCAASGFTFSNYAMSWVRQTPEKRLEWVATISDGGGYTYYLDNGQGRFTISRDNAKNNLYLQMSHLKSEDTAMYYCARDVGLTTFWYFDVWGTGTTVTVSS
# VL: DIVLTQSPVSLVISLGQRATISCRASKSVSPSSYNFMHWYQQRPGQPPKLLITYASNLESGVPARFSGSGSGTDFTLNIHPVEEEDAATYYCQHSREFPFTFGGGTRLEIK
# notes: Mouse hybridoma mAb; also called 2B7/A6; 2B7.A6
# B2: 15E10h, non-competitive anti-OSM humanised antibody (antibody, human IgG1, kappa, V domains shown)
# VH: QVQLVESGGGVVQPGRSLRLSCAASGFSLTNYGVHWVRQAPGKGLEWVAVIWRGGSTDYNAAFMSRFTISKDNSKNTLYLQMNSLRAEDTAVYYCAKSPNSNFYWYFDVWGRGTLVTVSS
# VL: EIVLTQSPATLSLSPGERATLSCSGSSSVSYMYWYQQKPGQAPRLLIEDTSNLASGIPARFSGSGSGTDYTLTISNLEPEDFAVYYCQQWSSYPPTFGQGTKLEIKR
# notes: also called Humanised 15E10; humanised 15E10
# B3: anti human OSM mAb S168110G08(1)1A09 (10G8), murine (antibody, V domains shown)
# VH: EMQLVESGEGLVEPGGSLKLSCAASGFTFSNYAMSWVRQTPEKSLEWVATISDGGSFTYYLDNVRGRFTISRDNAKNNLYLQMSHLKSDDTAMYYCARDVGHTTFWYFDVWGSGTAVTVSS
# VL: DIVLTQSPVFLVVSLGQRATISCRASKSVSAAGYNFMHWYQQKPGQPPKVLIKYASNLESGVPARFSGSGSGTDFTLNIHPVEEEDAVTYYCLHSREFPFTFGGGTNLEIK
# notes: Mouse hybridoma mAb; also called 10G8/A9; 10G8.A9
# Key:
# Human OSM [1] = target: T1, Human OSM; assay: BIAcore kinetics
# Cynomolgus OSM [2] = target: T2, Cynomolgus OSM; assay: BIAcore kinetics
# Human OSM [3] = target: T1, Human OSM; assay: cell-based or functional assay
# Cynomolgus OSM [4] = target: T2, Cynomolgus OSM; assay: cell-based or functional assay
# Marmoset OSM [5] = target: Marmoset OSM (marmoset); assay: cell-based or functional assay
# Human OSM [6] = target: T1, Human OSM; assay: human gp130 ELISA, inhibition of OSM binding to gp130
# Cynomolgus OSM [7] = target: T2, Cynomolgus OSM; assay: as above
# Human OSM [8] = target: T1, Human OSM; assay: cell-based or functional assay; remark: listed apart in the source
# Cynomolgus OSM [9] = target: T2, Cynomolgus OSM; assay: cell-based or functional assay; remark: listed apart in the source
# Human OSM [10] = target: T1, Human OSM; assay: Kinexa solution phase affinity
# Description: (§1) Kinexa (Sapidyne Instruments 3200) solution phase affinity was used to determine the overall affinity of anti-OSM antibody H0(huCDRH1)L1 and Humanised 15E10 (an unrelated OSM antibody) to human, cynomolgus macaque, rhesus macaque and marmoset OSM (Table 15). Humanised 15E10 was added for comparison purposes.
# (§2) OSM beads were prepared either by adsorption (polymethylmethacrylate beads-PMMA) or amine coupling (NHS-activated sepharose beads). The range of OSM molecules studied necessitated the generation of beads coated with different concentrations of OSM. For the solution phase portion of the assay, a fixed concentration of antibody was incubated with a broad range of OSM concentrations and allowed to reach equilibrium by incubation at r.t. for at least 2 h before analysis proceeded. The OSM beads were then used to determine the amount of free antibody present in the solution phase samples, by means of the free antibody binding to the OSM bead matrix then detected using an appropriate secondary antibody (either anti-human or anti-mouse depending on the construct being tested) labelled with a fluorescent dye. The binding curves where fitted using the Kinexa Pro analysis software inherent to the machine. Multiple runs using varying starting concentrations of antibody were then compiled and analysed using the n-curve analysis software to give a more accurate determination of affinity.
# Cynomolgus OSM [11] = target: T2, Cynomolgus OSM; assay: Kinexa solution phase affinity
# Description: as §1, §2
# Marmoset OSM [12] = target: T5, Marmoset OSM (marmoset); assay: Kinexa solution phase affinity
# T5 construct: also called Marm OSM
# Description: as §1, §2
# Rhesus OSM = target: T3, Rhesus OSM; assay: Kinexa solution phase affinity
# Description: as §1, §2
# Human OSM [13] = target: T1, Human OSM; assay: cell-based or functional assay; remark: listed apart in the source
# Human OSM [14] = target: T1, Human OSM; assay: cell-based or functional assay; remark: listed apart in the source
# Human OSM [15] = target: T1, Human OSM; assay: cell-based or functional assay; remark: listed apart in the source
# Human OSM [16] = target: T1, Human OSM; assay: cell-based or functional assay; remark: listed apart in the source
# Human OSM [17] = target: T1, Human OSM; assay: cell-based or functional assay; remark: listed apart in the source
# Human OSM [18] = target: T1, Human OSM; assay: cell-based or functional assay; remark: listed apart in the source
# Human OSM [19] = target: T1, Human OSM; assay: cell-based or functional assay; remark: listed apart in the source
# Human OSM [20] = target: T1, Human OSM; assay: cell-based or functional assay; remark: listed apart in the source
# Human OSM [21] = target: T1, Human OSM; assay: BIAcore kinetics, purified antibody
# Cynomolgus OSM [22] = target: T2, Cynomolgus OSM; assay: BIAcore kinetics, purified antibody
# Human OSM [23] = target: T1, Human OSM; assay: BIAcore kinetics, purified antibody; remark: listed apart in the source
# Cynomolgus OSM [24] = target: T2, Cynomolgus OSM; assay: BIAcore kinetics, purified antibody; remark: listed apart in the source
# [25] = target: T4, Endogenous human OSM …; assay: gp130 ELISA with endogenous neutrophil-derived human OSM
# Human OSM [26] = target: T1, Human OSM; assay: BIAcore kinetics; remark: listed apart in the source
# Cynomolgus OSM [27] = target: T2, Cynomolgus OSM; assay: BIAcore kinetics; remark: listed apart in the source
# Human OSM [28] = target: T1, Human OSM; assay: BIAcore kinetics; remark: listed apart in the source
# Cynomolgus OSM [29] = target: T2, Cynomolgus OSM; assay: BIAcore kinetics; remark: listed apart in the source
# Human OSM [30] = target: T1, Human OSM; assay: cell-based or functional assay; remark: listed apart in the source
# Human OSM [31] = target: T1, Human OSM; assay: cell-based or functional assay; remark: listed apart in the source
# Cynomolgus OSM [32] = target: T2, Cynomolgus OSM; assay: cell-based or functional assay; remark: listed apart in the source
# Marmoset OSM [33] = target: T5, Marmoset OSM; assay: cell-based or functional assay; remark: listed apart in the source
# Human OSM [34] = target: T1, Human OSM; assay: cell-based or functional assay; remark: listed apart in the source
# Human OSM [35] = target: T1, Human OSM; assay: human gp130 ELISA, inhibition of OSM binding to gp130; remark: listed apart in the source
# Cynomolgus OSM [36] = target: T2, Cynomolgus OSM; assay: as above; remark: listed apart in the source
# [37] = target: T4, Endogenous human OSM …; assay: gp130 ELISA with endogenous neutrophil-derived human OSM; remark: listed apart in the source
binder,measurement,setting,value
B1,Kd,Human OSM [1],2.09 nM
same,Kd,Cynomolgus OSM [2],9.31 nM
same,"KB cell neutralisation assay, mean IC50",Human OSM [3],0.049 µg/ml and 327 pM
same,"KB cell neutralisation assay, mean IC50",Cynomolgus OSM [4],0.344 µg/ml and 2.3 nM
same,IC50 (read off the curve); IL-6 release from KB cells stimulated with marmoset OSM,Marmoset OSM [5],~0.05 µg/mL
same,IC50,Human OSM [6],0.08 µg/mL and 0.533 nM
same,IC50,Cynomolgus OSM [7],0.14 µg/mL and 0.993 nM
B2,"KB cell neutralisation assay, mean IC50",Human OSM [8],0.0391 µg/ml and 261 pM
same,"KB cell neutralisation assay, mean IC50",Cynomolgus OSM [9],0.0054 µg/ml and 36 pM
same,Kd,Human OSM [10],0.727 nM
same,Kd,Cynomolgus OSM [11],0.102 nM
same,Kd,Marmoset OSM [12],6.1 nM
same,Kd,Rhesus OSM,0.102 nM
same,IC50 (read off the curve); IL-6 release from HFLS-RA cells stimulated with 0.3 ng/ml human OSM,Human OSM [13],~0.1 nM
same,IC50 (read off the curve); IL-6 release from HFLS-RA cells stimulated with 3 ng/ml human OSM,Human OSM [14],~2 nM
same,IC50 (read off the curve); MCP-1 release from HFLS-RA cells stimulated with 0.3 ng/ml human OSM,Human OSM [15],~0.2 nM
same,IC50 (read off the curve); MCP-1 release from HFLS-RA cells stimulated with 3 ng/ml human OSM,Human OSM [16],~2 nM
same,IC50 (read off the curve); MCP-1 release from normal human lung fibroblasts stimulated with 3 ng/ml OSM,Human OSM [17],~1 µg/mL
same,IC50 (read off the curve); MCP-1 release from IPF human lung fibroblasts stimulated with 3 ng/ml OSM,Human OSM [18],~2 µg/mL
same,IC50 (read off the curve); IL-6 release from normal human lung fibroblasts stimulated with 3 ng/ml OSM,Human OSM [19],~0.6 µg/mL
same,IC50 (read off the curve); IL-6 release from IPF human lung fibroblasts stimulated with 3 ng/ml OSM,Human OSM [20],~1 µg/mL
same,Kd,Human OSM [21],1.43 nM
same,koff,Human OSM [21],0.000615 s⁻¹
same,kon,Human OSM [21],429000 M⁻¹ s⁻¹
same,Kd,Cynomolgus OSM [22],0.59 nM
same,koff,Cynomolgus OSM [22],0.00031 s⁻¹
same,kon,Cynomolgus OSM [22],526000 M⁻¹ s⁻¹
same,Kd,Human OSM [23],0.882 nM
same,koff,Human OSM [23],0.000649 s⁻¹
same,kon,Human OSM [23],736000 M⁻¹ s⁻¹
same,Kd,Cynomolgus OSM [24],0.64 nM
same,koff,Cynomolgus OSM [24],0.000324 s⁻¹
same,kon,Cynomolgus OSM [24],507000 M⁻¹ s⁻¹
same,IC50,[25],0.076 µg/mL and 0.507 nM
B3,fold increased affinity compared with 15E10,Human OSM [26],8 fold
same,fold increased affinity compared with 15E10,Cynomolgus OSM [27],11 fold
same,Kd,Human OSM [1],0.55 nM
same,Kd,Cynomolgus OSM [2],0.308 nM
same,Kd,Human OSM [28],0.549 nM
same,koff,Human OSM [28],6.14e-05 s⁻¹
same,kon,Human OSM [28],112000 M⁻¹ s⁻¹
same,Kd,Cynomolgus OSM [29],0.308 nM
same,koff,Cynomolgus OSM [29],2.99e-05 s⁻¹
same,kon,Cynomolgus OSM [29],96900 M⁻¹ s⁻¹
same,"KB cell neutralisation assay, potency compared with 15E10",Human OSM [30],15 fold
same,"KB cell neutralisation assay, mean IC50",Human OSM [3],0.008 µg/ml and 53 pM
same,"KB cell neutralisation assay, mean IC50",Cynomolgus OSM [4],0.006 µg/ml and 40 pM
same,"KB cell neutralisation assay, mean IC50",Human OSM [31],0.054 µg/ml and 360 pM
same,"KB cell neutralisation assay, mean IC50",Cynomolgus OSM [32],0.034 µg/ml and 227 pM
same,"KB cell neutralisation assay, mean IC50",Human OSM [8],0.0026 µg/ml and 17 pM
same,"KB cell neutralisation assay, mean IC50",Cynomolgus OSM [9],0.0017 µg/ml and 11 pM
same,"KB cell neutralisation assay, mean IC50",Marmoset OSM [33],0.0017 µg/ml and 11 pM
same,"IC50 (read off the curve); IL-6 release from KB cells stimulated with human OSM, 25% human AB serum",Human OSM [34],~0.02 µg/mL
same,IC50,Human OSM [6],0.06 µg/mL and 0.4 nM
same,IC50,Cynomolgus OSM [7],0.01 µg/mL and 0.04 nM
same,IC50,Human OSM [35],0.044 µg/mL and 0.293 nM
same,IC50,Cynomolgus OSM [36],0.017 µg/mL and 0.113 nM
same,IC50,[37],0.009 µg/mL and 0.06 nM
same,IC50,[25],0.009 µg/mL and 0.06 nM
